Four molecules from patent publication EP4707292A2 (The University of North Carolina at Chapel Hill, dated 2026) can be followed below.

B1: Fibrinogen gamma chain (other)
chain: YVATRDNCCILDERFGSYCPTTCGIADFLSTYQTKVDKDLQSLEDILHQVENKTSEVKQLIKAIQLTYNPDESSKPNMIDAATLKSRKMLEEIMKYEASILTHDSSIRYLQEIYNSNNQKIVNLKEKVAQLEAQCQEPCKDTVQIHDITGKDCQDIANKGAKQSGLYFIKPLKANQQFLVYCEIDGSGNGWTVFQKRLDGSVDFKKNWIQYKEGFGHLSPTGTTEFWLGNEKIHLISTQSAIPYALRVELEDWNGRTSTADYAMFKVGPEADKYRLTYAYFAGGDAGDAFDGFDFGDDPSDKFFTSHNGMQFSTWDNDNDKFEGNCAEQDGSGWWMNKCHAGHLNGVYYQGGTYSKASTPNGYDNGIIWATWKTRWYSMKKTTMKIIPFNRLTIGEGQQHHLGGAKQVRPEHPAETEYDSLYPEDDL
notes: also called FGG
B2: Fibrinogen beta chain (other)
chain: GHRPLDKKREEAPSLRPAPPPISGGGYRARPAKAAATQKKVERKAPDAGGCLHADPDLGVLCPTGCQLQEALLQQERPIRNSVDELNNNVEAVSQTSSSSFQYMYLLKDLWQKRQKQVKDNENVVNEYSSELEKHQLYIDETVNSNIPTNLRVLRSILENLRSKIQKLESDVSAQMEYCRTPCTVSCNIPVVSGKECEEIIRKGGETSEMYLIQPDSSVKPYRVYCDMNTENGGWTVIQNRQDGSVDFGRKWDPYKQGFGNVATNTDGKNYCGLPGEYWLGNDKISQLTRMGPTELLIEMEDWKGDKVKAHYGGFTVQNEANKYQISVNKYRGTAGNALMDGASQLMGENRTMTIHNGMFFSTYDRDNDGWLTSDPRKQCSKEDGGGWWYNRCHAANPNGRYYWGGQYTWDMAKHGTDDGVVWMNWKGSWYSMRKMSMKIRPFFPQQ
notes: also called FGB
B3: Fibrinogen alpha chain (other)
chain: GPRVVERHQSACKDSDWPFCSDEDWNYKCPSGCRMKGLIDEVNQDFTNRINKLKNSLFEYQKNNKDSHSLTTNIMEILRGDFSSANNRDNTYNRVSEDLRSRIEVLKRKVIEKVQHIQLLQKNVRAQLVDMKRLEVDIDIKIRSCRGSCSRALAREVDLKDYEDQQKQLEQVIAKDLLPSRDRQHLPLIKMKPVPDLVPGNFKSQLQKVPPEWKALTDMPQMRMELERPGGNEITRGGSTSYGTGSETESPRNPSSAGSWNSGSSGPGSTGNRNPGSSGTGGTATWKPGSSGPGSTGSWNSGSSGTGSTGNQNPGSPRPGSTGTWNPGSSERGSAGHWTSESSVSGSTGQWHSESGSFRPDSPGSGNARPNNPDWGTFEEVSGNVSPGTRREYHTEKLVTSKGDKELRTGKEKVTSGSTTTTRRSCSKTVTKTVIGPDGHKEVTKEVVTSEDGSDCPEAMDLGTLSGIGTLDGFRHRHPDEAAFFDTASTGKTFPGFFSPMLGEFVSETESRGSESGIFTNTKESSSHHPGIAEFPSRGKSSSYSKQFTSSTSYNRGDSTFESKSYKMADEAGSEADHEGTHSTKRGHAKSRPVRDCDDVLQTHPSGTQSGIFNIKLPGSSKIFSVYCDQETSLGGWLLIQQRMDGSLNFNRTWQDYKRGFGSLNDEGEGEFWLGNDYLHLLTQRGSVLRVELEDWAGNEAYAEYHFRVGSEAEGYALQVSSYEGTAGDALIEGSVEEGAEYTSHNNMQFSTFDRDADQWEENCAEVYGGGWWYNNCQAANLNGIYYPGGSYDPRNNSPYEIENGVVWVSFRGADYSLRAVRMKIRPLVTQ
notes: from human serum, identified by MS; also called FGA
B4: Plasminogen (other)
chain: EPLDDYVNTQGASLFSVTKKQLGAGSIEECAAKCEEDEEFTCRAFQYHSKEQQCVIMAENRKSSIIIRMRDVVLFEKKVYLSECKTGNGKNYRGTMSKTKNGITCQKWSSTSPHRPRFSPATHPSEGLEENYCRNPDNDPQGPWCYTTDPEKRYDYCDILECEEECMHCSGENYDGKISKTMSGLECQAWDSQSPHAHGYIPSKFPNKNLKKNYCRNPDRELRPWCFTTDPNKRWELCDIPRCTTPPPSSGPTYQCLKGTGENYRGNVAVTVSGHTCQHWSAQTPHTHNRTPENFPCKNLDENYCRNPDGKRAPWCHTTNSQVRWEYCKIPSCDSSPVSTEQLAPTAPPELTPVVQDCYHGDGQSYRGTSSTTTTGKKCQSWSSMTPHRHQKTPENYPNAGLTMNYCRNPDADKGPWCFTTDPSVRWEYCNLKKCSGTEASVVAPPPVVLLPDVETPSEEDCMFGNGKGYRGKRATTVTGTPCQDWAAQEPHRHSIFTPETNPRAGLEKNYCRNPDGDVGGPWCYTTNPRKLYDYCDVPQCAAPSFDCGKPQVEPKKCPGRVVGGCVAHPHSWPWQVSLRTRFGMHFCGGTLISPEWVLTAAHCLEKSPRPSSYKVILGAHQEVNLEPHVQEIEVSRLFLEPTRKDIALLKLSSPAVITDKVIPACLPSPNYVVADRTECFITGWGETQGTFGAGLLKEAQLPVIENKVCNRYEFLNGRVQSTELCAGHLAGGTDSCQGDSGGPLVCFEKDKYILQGVTSWGLGCARPNKPGVYVRVSRFVTWIEGVMRNN
notes: also called PLG; PMG

The first experiment deals with T1, Adeno-associated virus 8 (AAV8) virion (adeno-associated virus 8).
T1 construct: Intact virion with packaged vector genome; capsid of 60 subunits (VP1, VP2, VP3, overlapping products of one cap gene); also called AAV8/luc; AAV8 capsid
In words: co-IP/LC-MS/MS, AAV8 + human serum vs PBS control.
Turning to B1, the fold change was 1.6 fold.

Turning to B2, the fold change came to 1.43 fold.

Consider B3, for which the fold change worked out at 1.75 fold.

Consider B4, for which the fold change came to 1.48 fold.

A further experiment addresses T2, Adeno-associated virus 9 (AAV9) virion (adeno-associated virus 9).
T2 construct: Intact virion; capsid of VP1, VP2, VP3; also called AAV9/luc; AAV9 capsid
In words: co-IP with ADK9/LC-MS/MS, AAV9 + human serum vs control.
B1: the “fold change” value is 1.6 fold.

As to B2, the “fold change” value is 1.43 fold.

On to B3, for which the “fold change” value stood at 1.75 fold.

For B4, the “fold change” value worked out at 1.48 fold.

Another experiment deals with T2, Adeno-associated virus 9 (AAV9) virion. The experiment is described as above. This is another data set of the same source.
Regarding B1, the Fold increase is 4.85 fold.

Turning to B2, the Fold increase came out at 4.97 fold.

Consider B3, for which the Fold increase amounted to 4.95 fold.

Consider B4, for which the Fold increase was found to be 3.23 fold.
